Laboratory results: article PMC6663034, “ACAP1 assembles into an unusual protein lattice for membrane deformation through multiple stages” (PLoS Computational Biology, 2019)

Target: the molecule itself
Experiment: cryo-EM structure; cryo-electron tomography and sub-tomogram averaging of the ACAP1^BAR-PH coat on non-tubulated (spherical) portions of liposomes; average of 233 coat particles; dimer model PDB 4CKG fitted into the density; dimers to tetramer on membrane

B1: ACAP1^BAR-PH (a.a. 1-377) (domain or fragment, UniProt Q15027 1-377, looked up)
chain: MTVKLDFEECLKDSPRFRASIELVEAEVSELETRLEKLLKLGTGLLESGRHYLAASRAFVVGICDLARLGPPEPMMAECLEKFTVSLNHKLDSHAELLDATQHTLQQQIQTLVKEGLRGFREARRDFWRGAESLEAALTHNAEVPRRRAQEAEEAGAALRTARAGYRGRALDYALQINVIEDKRKFDIMEFVLRLVEAQATHFQQGHEELSRLSQYRKELGAQLHQLVLNSAREKRDMEQRHVLLKQKELGGEEPEPSLREGPGGLVMEGHLFKRASNAFKTWSRRWFTIQSNQLVYQKKYKDPVTVVVDDLRLCTVKLCPDSERRFCFEVVSTSKSCLLQADSERLLQLWVSAVQSSIASAFSQARLDDSPRGPGQ
notes: ACAP1 (Arfgap with Coil-coil, Ankryin repeat, PH domain 1), BAR-PH tandem, a.a; 1-377; also called BAR-PH tandem of ACAP1; wild-type ACAP1^BAR-PH; source: E. coli BL21 (DE3), purified (glutathione-Sepharose 4B, GST removed with Precision Protease)
  stoichiometry N: 4
